Target: H-OspA, freshly biotinylated (Borrelia bavariensis strain SKT-7.1)
Test: BLI; BLItz; biotinylated H-OspA on streptavidin biosensors (250 μg/mL, 150 s); soluble sdAb at 7.25, 14.5 and 29 μM; 120 s association, 120 s dissociation; PBS-T, 0.02% Tween-20; global fitting (1:1)

koff | kon | Binder
0.146 s⁻¹ | 185 M⁻¹ s⁻¹ | Soluble sdAb produced from PhC12 (VHH) VHH: RREVVESGGGLVQPGESLRVACAASGFTVSSYIMHWVRQAPGKGLEWVSYIDHGGNTVYGDSVKGRFTISRDNAKNTLALQMNSLKPEDTALYYCVRDGDNTHFVAYDYWGQGTLVTVS
0.0586 s⁻¹ | 13700 M⁻¹ s⁻¹ | Soluble sdAb produced from PhC11 (VHH) VHH: QVEVVASGGGLVQAGESLRLSCTASGFTFDNVAAGWFRQAPGKEREGVACISKNGRTTDSADSVKGRFTISRDTAKNTVYLQMDKLKVEDTAEYYCAATYLNTCVLSSPPENIHYWGKGTQVTVS

Reference: PMC5259998
